The assay concerns the target His6-tagged SRC SH3SH2 (residues 84-251) (human) (UniProt P12931). Put plainly: SPR; His6-SRC SH3SH2 captured on Ni-NTA dextran chip (NiD200M); PTP4A1 injected for 60 seconds at 50 μL/min; 25°C; 20 mM Tris pH 8.0, 250 mM NaCl, 0.05% Tween 20; single injections fit with a 1-to-1 model. Background: SPR reads the build-up and loss of mass on a sensor chip optically.

pKd: −log10 of the molar value.

Consider one substance from article PMC9089796.

“oxidized PTP4A1 (residues 1-160) for SPR and NMR (from UniProt Q93096 1-160) (domain or fragment)”: the pKd (usually −log10 of the Kd, conventionally taken in molar units) is 5.82.
